Experimental data taken from article PMC10925414.

Legend:
[1] = biological target: γC3 EC1-EC4 wild type (PcdhγC3 EC1-EC4 ectodomain fragment) (mouse); assay: AUC; sedimentation equilibrium of single proteins; 1.1, 0.73 and 0.37 mg/mL; 10 mM Tris, 150 mM NaCl, 3 mM CaCl2, pH 8.0, 250 mM imidazole; 25°C; 11000-20000 rpm; interference at 675 nm; global fit in SedPhat; dimer to monomers
[2] = biological target: γC3 protocadherin EC1-EC4 (Mus musculus); details: cited from earlier work

Row | Kd [1] [µM] | Substance | Kd [2] [µM]
1 | 115 | γC3 EC1-EC4 wild type (PcdhγC3 EC1-EC4 ectodomain fragment) (domain or fragment) | 
2 |  | γC3 protocadherin EC1-EC4 (from UniProt Q9UN70) | 115
